Target: VLDLR(28–797)Δ(751–779)-C-tag (VLDLR ectodomain), P98155-2
Experiment: ELISA
Settings: chain shown with the change, VLDLR-ed coated on microtiter plates, background binding to BSA subtracted; for Kd: parent: 79.6 nM; for response (Absorbance (450nm)): fitted binding curve read at Clu 1.0 µM, parent: est. 0.48, read off a plot

| Binder | Kd (Clu 0-1.0 µM) | Kd (Clu 0-2.0 µM) | other results |
| --- | --- | --- | --- |
| wild-type human clusterin (WT Clu), P10909 S161R (protein) chain 1: DQTVSDNELQEMSNQGSKYVNKEIQNAVNGVKQIKTLIEKTNEERKTLLSNLEEAKKKKEDALNETRESETKLKELPGVCNETMMALWEECKPCLKQTCMKFYARVCRSGSGLVGRQLEEFLNQSSPFYFWMNGDRIDRLLENDRQQTHMLDVMQDHFSRASSIIDELFQDRFFTREPQDTYHYLPFSLPHRRPHFFFPKSRIVR chain 2: SLMPFSPYEPLNFHAMFQPFLEMIHEAQQAMDIHFHSPAFQHPPTEFIREGDDDRTVCREIRHNSTGCLRMKDQCDKCREILSVDCSTNNPSQAKLRRELDESLQVAERLTRKYNELLKSYQWKMLNTSSLLEQLNEQFNWVSRLANLTQGEDQYYLRVTTVASHTSDSDVPSGVTEVVVKLFDSDPITVTVPVEVSRKNPKFMETVAEKALQEYRKKHREE | 376 nM |  |  |
| wild-type human clusterin (WT Clu), P10909 Y204S; Y206S; L207S; F209S; L211S; F218S; F219S; F220S; L229S; M230S; F232S; Y235S (protein) MMKTLLLFVGLLLTWESGQVLGDQTVSDNELQEMSNQGSKYVNKEIQNAVNGVKQIKTLIEKTNEERKTLLSNLEEAKKKKEDALNETRESETKLKELPGVCNETMMALWEECKPCLKQTCMKFYARVCRSGSGLVGRQLEEFLNQSSPFYFWMNGDRIDSLLENDRQQTHMLDVMQDHFSRASSIIDELFQDRFFTREPQDTSHSSPSSSPHRRPHSSSPKSRIVRSSSPSSPSEPLNFHAMFQPFLEMIHEAQQAMDIHFHSPAFQHPPTEFIREGDDDRTVCREIRHNSTGCLRMKDQCDKCREILSVDCSTNNPSQAKLRRELDESLQVAERLTRKYNELLKSYQWKMLNTSSLLEQLNEQFNWVSRLANLTQGEDQYYLRVTTVASHTSDSDVPSGVTEVVVKLFDSDPITVTVPVEVSRKNPKFMETVAEKALQEYRKKHREE |  |  | response (Absorbance (450nm)): 0.055 |
| wild-type human clusterin (WT Clu), P10909 A108E; L109S; E112K; P115Q; K304A; E307H (protein) MMKTLLLFVGLLLTWESGQVLGDQTVSDNELQEMSNQGSKYVNKEIQNAVNGVKQIKTLIEKTNEERKTLLSNLEEAKKKKEDALNETRESETKLKELPGVCNETMMESWEKCKQCLKQTCMKFYARVCRSGSGLVGRQLEEFLNQSSPFYFWMNGDRIDSLLENDRQQTHMLDVMQDHFSRASSIIDELFQDRFFTREPQDTYHYLPFSLPHRRPHFFFPKSRIVRSLMPFSPYEPLNFHAMFQPFLEMIHEAQQAMDIHFHSPAFQHPPTEFIREGDDDRTVCREIRHNSTGCLRMKDQCDACRHILSVDCSTNNPSQAKLRRELDESLQVAERLTRKYNELLKSYQWKMLNTSSLLEQLNEQFNWVSRLANLTQGEDQYYLRVTTVASHTSDSDVPSGVTEVVVKLFDSDPITVTVPVEVSRKNPKFMETVAEKALQEYRKKHREE | 137 nM |  |  |
| wild-type human clusterin (WT Clu), P10909 Y125F; G132E; L135K; R138E; Q139A; E142S (protein) MMKTLLLFVGLLLTWESGQVLGDQTVSDNELQEMSNQGSKYVNKEIQNAVNGVKQIKTLIEKTNEERKTLLSNLEEAKKKKEDALNETRESETKLKELPGVCNETMMALWEECKPCLKQTCMKFFARVCRSESGKVGEALESFLNQSSPFYFWMNGDRIDSLLENDRQQTHMLDVMQDHFSRASSIIDELFQDRFFTREPQDTYHYLPFSLPHRRPHFFFPKSRIVRSLMPFSPYEPLNFHAMFQPFLEMIHEAQQAMDIHFHSPAFQHPPTEFIREGDDDRTVCREIRHNSTGCLRMKDQCDKCREILSVDCSTNNPSQAKLRRELDESLQVAERLTRKYNELLKSYQWKMLNTSSLLEQLNEQFNWVSRLANLTQGEDQYYLRVTTVASHTSDSDVPSGVTEVVVKLFDSDPITVTVPVEVSRKNPKFMETVAEKALQEYRKKHREE |  | 1190 nM |  |
| wild-type human clusterin (WT Clu), P10909 Y204S; Y206S; L207S; F209S; L211S; F218S; F219S; F220S (protein) MMKTLLLFVGLLLTWESGQVLGDQTVSDNELQEMSNQGSKYVNKEIQNAVNGVKQIKTLIEKTNEERKTLLSNLEEAKKKKEDALNETRESETKLKELPGVCNETMMALWEECKPCLKQTCMKFYARVCRSGSGLVGRQLEEFLNQSSPFYFWMNGDRIDSLLENDRQQTHMLDVMQDHFSRASSIIDELFQDRFFTREPQDTSHSSPSSSPHRRPHSSSPKSRIVRSLMPFSPYEPLNFHAMFQPFLEMIHEAQQAMDIHFHSPAFQHPPTEFIREGDDDRTVCREIRHNSTGCLRMKDQCDKCREILSVDCSTNNPSQAKLRRELDESLQVAERLTRKYNELLKSYQWKMLNTSSLLEQLNEQFNWVSRLANLTQGEDQYYLRVTTVASHTSDSDVPSGVTEVVVKLFDSDPITVTVPVEVSRKNPKFMETVAEKALQEYRKKHREE |  |  | response (Absorbance (450nm)): 0.16 |

Now from value to binder, other results behind:

| Kd (Clu 0-1.0 µM) | Kd (Clu 0-2.0 µM) | Binder | other results |
| --- | --- | --- | --- |
|  | 989 nM | wild-type human clusterin (WT Clu), P10909 L229S; M230S; F232S; Y235S (protein) MMKTLLLFVGLLLTWESGQVLGDQTVSDNELQEMSNQGSKYVNKEIQNAVNGVKQIKTLIEKTNEERKTLLSNLEEAKKKKEDALNETRESETKLKELPGVCNETMMALWEECKPCLKQTCMKFYARVCRSGSGLVGRQLEEFLNQSSPFYFWMNGDRIDSLLENDRQQTHMLDVMQDHFSRASSIIDELFQDRFFTREPQDTYHYLPFSLPHRRPHFFFPKSRIVRSSSPSSPSEPLNFHAMFQPFLEMIHEAQQAMDIHFHSPAFQHPPTEFIREGDDDRTVCREIRHNSTGCLRMKDQCDKCREILSVDCSTNNPSQAKLRRELDESLQVAERLTRKYNELLKSYQWKMLNTSSLLEQLNEQFNWVSRLANLTQGEDQYYLRVTTVASHTSDSDVPSGVTEVVVKLFDSDPITVTVPVEVSRKNPKFMETVAEKALQEYRKKHREE |  |
| 109 nM |  | wild-type human clusterin (WT Clu), P10909 V369K; A373T; T376K (protein) MMKTLLLFVGLLLTWESGQVLGDQTVSDNELQEMSNQGSKYVNKEIQNAVNGVKQIKTLIEKTNEERKTLLSNLEEAKKKKEDALNETRESETKLKELPGVCNETMMALWEECKPCLKQTCMKFYARVCRSGSGLVGRQLEEFLNQSSPFYFWMNGDRIDSLLENDRQQTHMLDVMQDHFSRASSIIDELFQDRFFTREPQDTYHYLPFSLPHRRPHFFFPKSRIVRSLMPFSPYEPLNFHAMFQPFLEMIHEAQQAMDIHFHSPAFQHPPTEFIREGDDDRTVCREIRHNSTGCLRMKDQCDKCREILSVDCSTNNPSQAKLRRELDESLQVAERLTRKYNELLKSYQWKMLNTSSLLEQLNEQFNWKSRLTNLKQGEDQYYLRVTTVASHTSDSDVPSGVTEVVVKLFDSDPITVTVPVEVSRKNPKFMETVAEKALQEYRKKHREE |  |
|  | 1180 nM | wild-type human clusterin (WT Clu), P10909 K123Q; R127Q; R130Q; R138Q; R282Q; R286Q; R289Q (protein) MMKTLLLFVGLLLTWESGQVLGDQTVSDNELQEMSNQGSKYVNKEIQNAVNGVKQIKTLIEKTNEERKTLLSNLEEAKKKKEDALNETRESETKLKELPGVCNETMMALWEECKPCLKQTCMQFYAQVCQSGSGLVGQQLEEFLNQSSPFYFWMNGDRIDSLLENDRQQTHMLDVMQDHFSRASSIIDELFQDRFFTREPQDTYHYLPFSLPHRRPHFFFPKSRIVRSLMPFSPYEPLNFHAMFQPFLEMIHEAQQAMDIHFHSPAFQHPPTEFIREGDDDQTVCQEIQHNSTGCLRMKDQCDKCREILSVDCSTNNPSQAKLRRELDESLQVAERLTRKYNELLKSYQWKMLNTSSLLEQLNEQFNWVSRLANLTQGEDQYYLRVTTVASHTSDSDVPSGVTEVVVKLFDSDPITVTVPVEVSRKNPKFMETVAEKALQEYRKKHREE |  |
